Laboratory results published in patent US6451528B1, “Sperm-specific AKAP protein genes and uses” (Oregon Health & Sciences University, priority 1999, dated 2002).

Target: T1, RIIα binding to AKAP110 (Mus musculus, UniProt P12367)
T1 construct: made in house; host or cells: E. coli
Assay: RII overlay binding assay with 32P-labeled RIIα
Settings: peptide included in the binding assay at a concentration of 1 μM; results in FIG. 4D
Procedure: The identity of AKAP110 in the extracts prepared as described above was determine using an RII overlay assay. This assay was based on previous experiments which had shown that PKA anchoring proteins could be specifically detected after electrophoretic separation by overlay with labeled RII subunit of mammalian PKA (see Vijayaraghavan et al., 1997, J. Biol. Chem. 272; 4747-4752). These assays were performed as follows. Polyacrylamide gel electrophoresis containing sodium dodecyl sulfate (SDS/PAGE) was performed as described in Johnson et al. (1997, Devel. Biol. 192: 340-350) and Visconti et al. (1997, Devel. Biol. 192: 351-363). Approximately […] protein per lane was loaded on a 10% gel and electrophoresed overnight at a constant current of 8mA. After electrophoresis, protein bands were transferred to Immobilon P (polyvinylidene difluoride, obtained from Millipore, Bedford, Mass.) as described in the Johnson and Visconti references. […]
The conserved regions of sequence are expected to correspond to functional domains. The portion of the sequence corresponding to the RII binding domain was determined using an RII overlay assay as follows. […] This blot was then hybridized with ^32P-labeled RIIα (results shown in FIG. 4A) or with horse radish peroxidase-conjugated S-protein that detects an S-tag expressed as a fusion protein by the pET30A vector (results shown in FIG. 4B). […]

T1 sequence (P12367 2-401 limits assumed): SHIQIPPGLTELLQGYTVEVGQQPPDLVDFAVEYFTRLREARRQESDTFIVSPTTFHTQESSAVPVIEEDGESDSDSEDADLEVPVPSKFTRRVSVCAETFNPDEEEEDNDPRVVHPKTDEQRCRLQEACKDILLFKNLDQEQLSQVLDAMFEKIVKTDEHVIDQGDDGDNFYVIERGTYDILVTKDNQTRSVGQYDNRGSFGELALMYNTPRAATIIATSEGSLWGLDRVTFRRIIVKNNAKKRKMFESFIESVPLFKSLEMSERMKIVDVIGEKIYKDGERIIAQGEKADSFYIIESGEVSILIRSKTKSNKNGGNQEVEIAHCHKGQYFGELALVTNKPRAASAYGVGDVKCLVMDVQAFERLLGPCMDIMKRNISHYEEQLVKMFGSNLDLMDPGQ

radiolabeled RIIα binding: prevent radiolabeled RIIα binding
Sequence: SFYANRLTNLVI (listed as Mus musculus)
